Assay results: paper PMC10514967, “The terpene synthase (TPS) gene family in kiwifruit shows high functional redundancy and a subset of TPS likely fulfil overlapping functions in fruit flavour, floral bouquet and defence” (Molecular Horticulture, 2023)

Tests used:
[1] = test system: AcLIS/NES; experiment: SPME GC-MS of major terpene product, Michaelis-Menten fit; format: biochemical, Actinidia chinensis var. chinensis; details: 50 mM Bis-Tris propane pH 7.5, 10 mM MgCl2, 30 °C
Source text: SPME GC-MS of major terpene product, Michaelis-Menten fit on AcLIS/NES

[2] = substrate: CC(C)=CCC/C(C)=C/CC/C(C)=C/CO[P@@](=O)(O)OP(=O)(O)O; experiment: as above; format: biochemical, Actinidia chinensis; details: 50 mM Bis-Tris propane pH 7.5, 10 mM MgCl2, 30 °C
Source text: SPME GC-MS of major terpene product, Michaelis-Menten fit on AcBCS

Km [1] [µM] | Molecule | Km [2] [µM] | Vmax [2] [µM/min] | kcat [2] [s⁻¹] | kcat/Km [2] [M⁻¹ s⁻¹]
7.43 ± 1.25 | CC(C)=CCC/C(C)=C/CC/C(C)=C/COP(=O)(O)OP(=O)(O)O [FDP] | – | – | – | –
30.9 ± 3.81 | CC(C)=CCC/C(C)=C/COP(=O)(O)OP(=O)(O)O [GDP] | – | – | – | –
– | AcBCS (Actinidia chinensis var. chinensis) (protein) MAISCATALPIPTVSTKITMEPLVTRRSANYHPSIWGDHFLAYSSLPTEVDVNMEQEQLHQLKQKVIKMLMAAADKPSQMLNLIDRIQRLGVSYHFKTEIEAALKHIYESDHHFDDLYTVALFFRLLRQQGFPVSCEVFNKFKNNQGKFQECLIGDVVGILCLYEATHLRVRGEEILDEALSFTTTHLESMVPNLSNPVAEHAIHALNQPIHKGLTRLDARQYISFYEQDDSHNKDLLNFAKLDFNLLQKLHQRELCEITRWWKDLDFAKKLPFARDRLVESYFWVLGVYFEPQYWLARRILTKVIAMSSVIDDIYDVYGTLEELALFTDAIERWEISSLDKLPEYMKLCYQALLDIYSTIDEEMAKQGGSYRVYYAKSEMKNLVRGYFEEAKWFHQGYVPSMEEYMQVALLSSGYKMVTTTSFVGMGELATKEAFDWVSSYPLIVEAVSAIARLTDDIVGHKFEQQRGHVASAVECYMKQNGATEEEAIVELYEQVTNAWKDMNAECLYSTKVPMPLLVRVLNLARVINVLYKDEDSYTHSGTRTKNFVTSVLIDSVPIN | 1.54 ± 0.54 | 0.013 | 0.0087 ± 0.002 | 5870 ± 1100
